Measured values taken from patent publication US8846363B2, “Compositions of and methods of using sulfatases from Flavobacterium heparinum” (priority 2007, dated 2014).

Columns and labels:
Type in all cases: biochemical
[1] = Pilot capillary electrophoresis desulfation assay with monosulfated 4-MU gluco- and galactopyranosides
Protocol: Initial assessment of substrate specificity and pH optima was made using a capillary electrophoresis-based assay for the detection of desulfated products. Preliminary enzyme activity was measured against the following series of fluorescently derivatized, monosulfated gluco and galactopyranosides: 4-MU-GlcNAc,6S, 4-MU-GlcNS, 4-MU-GalNAc,6S and 4-MU-Gal6S. Standard reactions included 1 mM substrate, 1-10 μM enzyme, 50 mM sodium acetate, pH 5.5-6.5 and 5 mM CaCl2 in a 20 μL reaction volume. For pilot experiments, exhaustive reactions involved overnight incubations at 30° C. Enzyme was inactivated by heat denaturation at 95° C. for 10 minutes, followed by a 10-fold dilution into water. Reaction products were resolved by capillary electrophoresis using a 25 cm long, 75 μm (i.d.) fused silica capillary (Agilent Technologies, Palo Alto, Calif.). Electrophoresis was carried out under negative polarity by applying a voltage of −15 kV (˜1.2 W) for 10 minutes. Substrate desulfation was measured as a percentage of substrate depletion relative to a minus enzyme control as monitored by the loss of UV absorbance at 315 nm detected at approximately 4 minutes. A standard capillary electrophoresis buffer included 50 mM Tris and 10 μM dextran sulfate (average MW of 10,000 Da) adjusted to pH 2.0 with phosphoric acid. At this pH, saccharide migration occurred on the basis of charge without the influence of electro-osmotic flow.

[2] = ESI mass spectrometry of desulfation of non-derivatized sulfated glucosamine monosaccharides
Protocol: Electrospray ionization mass spectrometry was performed in the negative ion mode using an Agilent 1100 Series VL LC/MSD Trap. For simplicity, the samples were prepared by adding MeOH directly to the enzymatic reaction mixtures without purification and were directly injected into the source of the mass spectrometer using a syringe pump at a rate of ˜8 μl/min, The SPS function of the software (LC/MSD Trap Software 4.1 Build 143, MSD Trap Control Version 5.0 Build 65) was used to tune the instrument with the target mass set to the mass of the substrate, the sample stability set to 50% and the drive level set to 100%. Data were acquired over the scan range of 100-2200 m/z by accumulating 30,000 ions per scan. Capillary voltage was set to 3000 V. Nitrogen was used as the drying gas while helium was used as the nebulizing gas, with flow rates of 5 and 15 liters/min, respectively. In each case a minimum of ten spectra were averaged.
For the experiments determining the order of action of the enzymes, reactions were carried out with 100 μM substrate, 2 mM CaCl2, 5 μM enzyme and various buffers at 37° C. overnight. Samples were diluted 1:10 in MeOH prior to analysis in the ESI, and the carrier solvent was H2O:MeOH (1:10, v/v). For the time course experiments showing desulfation of different unlabeled monosaccharides, reactions were carried out with 2.5 mM substrate, 5 mM CaCl2, 1 μM enzyme and 50 mM acetate buffer at pH 5.5 for the 6-O-sulfatase and pH 6.0 for the N-sulfamidase at 37° C. Reactions were quenched by diluting the samples 1:4 in MeOH. The carrier solvent was H2O:MeOH (1:4, v/v). In these experiments, 4-MU-GlcNS was added prior to injection as an internal standard to monitor ionization efficiency and mass accuracy within the source and trap.

[3] = Fluorimetric arylsulfatase assay using 4-MUS
Protocol: Arylsulfatase activity was measured independently using two chromogenic substrates, 4-catechol-sulfate and 4-methylumbelliferyl-sulfate (4-MUS). The catechol substrate assay was conducted generally as described (Beil et al., 1995 Eur J Biochem 229, 385-394). Briefly, 10 mM substrate were incubated with ˜30 μM recombinant enzyme overnight (12-15 hours) at 37° C. in a 100 μL reaction which included 50 mM MES pH 7.0 and +2 mM CaCl2. Reactions were quenched by the addition of 5 μL 5M NaOH and colorimetric activity determined spectroscopically at 515 nm. Fluorimetric arylsulfatase assay using 4-MUS was as described (Morimoto-Tomita et al., 2002 J Biol Chem 277, 49175-85) with some modifications. Reaction conditions included 10 μM enzyme, 2 mM 4-MUS, 50 mM sodium acetate, pH 6.0, and 5 mM CaCl2 in a 20 μL reaction volume. The enzyme incubation temperature was 30° C. Activity was measured as a function of time ranging from 3 to 24 hours; the reactions were quenched by the addition of 200 μL 0.5 M Na2CO3, pH 10.7. Detection of fluorescent methylumbelliferone was measured at this alkaline pH using a SpectraMax microtiter plate reader ([…], Sunnyvale, Calif.) set at excitation and emission wavelengths of 360 and 440 nm, respectively. Fluorescence intensity was corrected against background (minus enzyme control). In both assays, 0.5 unit of arylsulfatase from Aerobacter aerogenes (Sigma, St. Louis, Mo.) was used as a positive control.

[4] = Compositional analyses of sulfatase treated heparin; conditions: 8 hours preincubation, then heparinase I and III
Protocol: 20 μg heparin were preincubated with 10 μM 6-O-sulfatase or N-sulfamidase for 8 hours at 30° C. in a 20 μL reaction which included 25 mM sodium acetate, pH 7.0 and 2 mM calcium acetate, pH 7.0. Following this preincubation, enzymes were inactivated by heat denaturation at 95° C. for 10 minutes and heparin exhaustively digested overnight at 37° C. by the addition of 2 μL of a concentrated enzyme cocktail containing heparinase I and III. Subsequent CE-based compositional analyses of heparinase-derived disaccharides were completed as described (Venkataraman et al., 1999 Science 286, 537-542).

[5] = Sequential degradation of heparin oligosaccharide by exo-enzymes, MALDI-MS; conditions: after 2-O-sulfatase and Δ4,5 glycuronidase
Protocol: The purified pentasulfated tetrasaccharide ΔU2SHNS,6SIHNS,6S was provided by Dr. I. Capila (Momenta Pharmaceuticals, Cambridge, Mass.). Enzyme sequence was as follows: 2-O-sulfatase→Δ4,5 glycuronidase→6-O-sulfatase→N-sulfamidase. After each step, the enzyme was heat inactivated and 20 μL aliquots removed prior to the addition of the next enzyme in the sequence. Initial reaction conditions included 20 mM Tris, pH 7.2 and 60 nanomoles of tetrasaccharide in a 120 μL reaction volume. All enzyme reactions were carried out at 30° C. Enzyme specific conditions included the following: 1) 2-O-sulfatase, 1 μM enzyme, 6 hours; 2) Δ4,5 glycuronidase, 1 μM enzyme, 6 hours; 3) 6-O-sulfatase, 5 μM enzyme, 5 mM CaCl2, 12-15 hours; 4) N-sulfamidase, same conditions as for 6-O-sulfatase. Molecular masses of enzyme products were determined by MALDI mass spectrometry using established methods (Rhomberg et al., 1998, Proc Natl Acad Sci USA 95, 12232-12237).

| Molecule | substrate specificity among four monosulfated 4-MU substrates [1] | activity on the two 6-O-sulfated galactose sugars ([1]; 4-MU-Gal6S and 4-MU-GalNAc,6S) | effect of the presence of a 3-O-sulfate [2] | requirement at the 2-amino position of glucosamine [2] | comparative kinetic analysis GlcNAc,6S vs. GlcNS,6S ([2]; time course) | hydrolysis of 4-MU sulfate [3] | rate of 4-MU sulfate hydrolysis relative to the ORF C protein [3] | effect of sulfatase pretreatment of unfractionated heparin on heparinase-derived cleavage products [4] | desulfation of the trisaccharides at the non-reducing end [5] | activity at the 2-amino position when a second sulfate at the 6-O position is present ([2]; substrate HNS,6S) |
| --- | --- | --- | --- | --- | --- | --- | --- | --- | --- | --- |
| Flavobacterium heparinum 6-O-sulfatase (ORF B), recombinant, NH2-terminal truncation lacking signal sequence, SEQ ID NO: 2 (Pedobacter heparinus DSM 2366) (protein, E. coli BL21(DE3), N-terminal 6xHis removed by thrombin) TLMSCQQPKPAESAKRPNIVFIMTDDHTIQAISAYGSKLVKTPNLDRIANEGMLFNNCFVTNAVCGPSRATILTGKYSHLNGLTDNSKVFDSTQVIYPQLLKKAGYQTAMIGKWHLGSTPMGFDYYSILPNQGQYYQPEFIENGHLVKEKGYVTDLITDKAIGFLEKRDHDKPFLMIYQHKAPHRNWLPAPRHLGMFDDTVFPEPANLLDDFKGRGRAAKEQLMNISTDMWPAWDLKMLSTAQLDSMAKLPVSPKFKDAKGDDYQQANDPSLDKARFFEVYNRMTDAEKVQWRKVYDKRVAEFKRLNPKGADLVRWKYQQYMRDYLACVVSVDENVGRLMDYLKKIGELDNTIIVYTSDQGFYLGEHGYFDKRFMYDESFRTPLMVRYPPSVKAGSVSNAFAMNLDFAPTLLDYAGVKIPADMQGLSLRPVLDNAGKSPENWRKAVYYHYYEFPSWHMVKRHYGIRTERYKLIHFYNDIDEWELYDMQKDPHEMQNLYNDKAYEPIIKDLKVQMKKLQVQYKDTNPTEAL | specific for the 6-O-sulfated glucosamine | did not act upon | completely inhibited | required a substituted amine (acetate or sulfate) at the 2-amino position | only a modest preference of the enzyme for the monosulfated substrate | partly hydrolyze | at least 3 fold | no effect on the compositional profile | able to singularly desulfate both trisaccharides |  |
| Flavobacterium heparinum N-sulfamidase (ORF C), recombinant, NH2-terminal truncation lacking signal sequence, SEQ ID NO: 4 (Pedobacter heparinus DSM 2366) (protein, E. coli BL21(DE3), N-terminal 6xHis removed by thrombin) SCTSPEKKTDRPNILMIMSDNQSWNHVGSYGDQTVRTPNMDRIAKEGVRFTNAFCSSPSCTPARAGMLTGQDIWRLEDGGNLWGVLPVKYKVYPDLLEEAGYAIGFQGKGWGPGSFEANKRPRNPAGNEFKSFGAFLKDKKEGPWCYWISSHEPHRPYVEGSGEKAGIDPNKVKVPAYLPDHISIRKDIADYYAAVETFDRELGEALDQLKASGELDNTVIVVCSDNGWQMPRGLANLYDFGTHVPLIISWPGKFKQDVVADNLVTLNDLAPTFLQLGKVPVPADMTGKSLLPIVEAGKKDEKPRDYVVLGRERHAFVRRHGLGYPGRAIRTKDYLYIKNYEPNRWPAGDPPFYGDIDPYMFNWPGETKYYLIEHKDDPKVKSFFELGMGKRPAEELFDINKDPDELHNLAALPEYQKIKQELVAKLRNYLVATKDPRETNGNIQIWDTAAYFSEIDKTPKPSKEMQKRFKLDSSYNYLK | could only hydrolyze the glucosamine sulfated at the 2-amino position |  | completely inhibited |  |  | only negligible activity |  | no effect on the compositional profile | not able to do so | absolutely abolished |
